This note sets out measurements from article PMC7175333.

In assay [1] the target is DLnano_LS_GT8 (DNA‐launched lumazine synthase nanoparticle decorated with eOD‐GT8, produced in vivo) (Aquifex aeolicus). Put plainly: native gel or EMSA; pseudo-native PAGE (3-8% Tris-acetate gel, LDS buffer at room temperature, no boiling) of mouse muscle homogenates 4 d.p.i., blotted with VRC01; SEC-purified recombinant standards alongside.
Assay [2] has as its target LS_HA_NC99 (lumazine synthase nanoparticle displaying the receptor binding domain of the head of influenza hemagglutinin, H1N1 A/New Caledonia/20/1999) (Aquifex aeolicus | influenza A virus H1N1 A/New Caledonia/20/1999). Nature of the assay: SEC + SEC-MALS + other: negative stain electron microscopy. Background: In gel filtration, larger molecules generally elute earlier.

In general, stoichiometry N refers to the number of molecules, sites or subunits per partner or assembly. Turning to “DLnano_LS_GT8 (DNA‐launched lumazine synthase nanoparticle decorated with eOD‐GT8, produced in vivo)”, in assay [1], the stoichiometry N is 60.
Turning to “LS_HA_NC99 (lumazine synthase nanoparticle displaying the receptor binding domain of the head of influenza hemagglutinin, H1N1 A/New Caledonia/20/1999)”, the stoichiometry N in assay [2] is 60.
